Experimental data as given in patent US20210380637A1.
Bridges are numbered along the chain shown (N, C = ends).

B1: cross-linked cyclic peptide of Example 1 (N-terminal PEG4-modified, C-terminal amidated …, the two outer cysteine residues linked as in formula CHEM-US-00008) (peptide)
peptide: GPDCAYHRGELVWCTFH
modifications: N-terminal H2N-PEG4; C-terminal amide; position 4 built as homoserine (Hse), its side-chain hydroxyl chlorinated and reacted with Cys 14, so that the two outer cysteine positions (4 and 14) are joined by the linker of drawing CHEM-US-00008 instead of a disulfide

Key:
[1] = molecular target: human serum-derived γ-globulin (Sigma-Aldrich); experiment: DBC on peptide-immobilized column, 0 NaOH wash cycles (reference)
[2] = molecular target: human serum-derived γ-globulin (Sigma-Aldrich); experiment: DBC on peptide-immobilized column after 10 wash cycles with 0.1 M NaOH
[3] = molecular target: human serum-derived γ-globulin (Sigma-Aldrich); experiment: DBC on peptide-immobilized column, 0 NaOH wash cycles
[4] = molecular target: human serum-derived γ-globulin (Sigma-Aldrich); experiment: DBC on peptide-immobilized column after 2 wash cycles with 0.1 M NaOH
[5] = molecular target: human serum-derived γ-globulin (Sigma-Aldrich); experiment: DBC on peptide-immobilized column after 5 wash cycles with 0.1 M NaOH
[6] = molecular target: human serum-derived γ-globulin (Sigma-Aldrich); experiment: DBC on peptide-immobilized column after 1 wash cycle with 0.1 M NaOH
[7] = molecular target: human serum-derived γ-globulin (Sigma-Aldrich); experiment: column chromatography, peptide immobilized on 1 mL NHS-activated column, 1 mg/mL human γ-globulin at 1 mL/min
human IgG = experiment: SPR (BIAcore T200), human IgG immobilized on chip, peptide injected at 15.6-1000 nM

| Binder | DBC 10% (% NaOH wash cycle 0) [1] [%] | DBC 10% [2] [mg/mL] | DBC 10% (% NaOH wash cycle 0) [2] [%] | DBC 10% [3] [mg/mL] | DBC 10% [4] [mg/mL] | DBC 10% (% NaOH wash cycle 0) [4] [%] | DBC 10% [5] [mg/mL] | DBC 10% (% NaOH wash cycle 0) [5] [%] | DBC 10% [6] [mg/mL] | DBC 10% (% NaOH wash cycle 0) [6] [%] | DBC (dynamic binding capacity, 10% breakthrough) [7] [mg/mL-column] | Kd (human IgG) [nM] | koff (human IgG) [s⁻¹] | kon (human IgG) [M⁻¹ s⁻¹] |
| --- | --- | --- | --- | --- | --- | --- | --- | --- | --- | --- | --- | --- | --- | --- |
| {NH2‑PEG4}-GPDCAYHRGELVWCTFH-NH2 (disulfide 4-14) | 100 | 6.1 | 45.2 | 13.5 | 11.5 | 85.2 | 8.9 | 65.9 | 12.4 | 91.9 | – | – | – | – |
| {NH2‑PEG4}-GPDCAYHRGELVWCTFH-NH2 (linker 4-14 via 1,3‑dichloro‑2‑propanone) | – | – | – | – | – | – | – | – | – | – | 2.3 | 4900 | 0.005 | – |
| B1 | 100 | 8.9 | 94.7 | 9.4 | 9.4 | 100 | 9.2 | 97.9 | 9.5 | 101 | 9.4 | 340 | 0.22 | 650000 |
